± gives the uncertainty stated by the source.
Test system: HEK293T
Assay: plasma membrane surface immunostaining intensity (anti-HA, deep receptor scanning) (arbitrary fluorescence units); higher = higher plasma membrane expression

Sequence	plasma membrane surface immunostaining intensity (GPCR class: A)	also measured
MSVCYRPPGNETLLSWKTSRATGTAFLLLAALLGLPGNGFVVWSLAGWRPARGRPLAATLVLHLALADGAVLLLTPLFVAFLTRQAWPLGQAGCKAVYYVCALSMYASVLLTGLLSLQRCLAVTRPFLAPRLRSPALARRLLLAVWLAALLLAVPAAVYRHLWRDRVCQLCHPSPVHAAAHLSLETLTAFVLPFGLMLGCYSVTLARLRGARWGSGRHGARVGRLVSAIVLAFGLLWAPYHAVNLLQAVAALAPPEGALAKLGGAGQAARAGTTALAFFSSSVNPVLYVFTAGDLLPRAGPRFLTRLFEGSGEARGGGRSREGTMELRTTPQLKVVGQGRGNGDPGGGMEKDGPEWDL [LTB4R2]	4310 ± 330	
MLESHLIIYFLLAVIQFLLGIFTNGIIVVVNGIDLIKHRKMAPLDLLLSCLAVSRIFLQLFIFYVNVIVIFFIEFIMCSANCAILLFINELELWLATWLGVFYCAKVASVRHPLFIWLKMRISKLVPWMILGSLLYVSMICVFHSKYAGFMVPYFLRKFFSQNATIQKEDTLAIQIFSFVAEFSVPLLIFLFAVLLLIFSLGRHTRQMRNTVAGSRVPGRGAPISALLSILSFLILYFSHCMIKVFLSSLKFHIRRFIFLFFILVIGIYPSGHSLILILGNPKLKQNAKKFLLHSKCCQ [TAS2R1]		plasma membrane surface immunostaining intensity (GPCR class: Taste): 212 ± 85
MCWTMPSPFTGSSTRNMESGNQSTVTEFIFTGFPQLQDGSLLYFFPLLFIYTFIIIDNLLIFSAVRLDTHLHNPMYNFISIFSFLEIWYTTATIPKMLSNLISEKKAISMTGCILQMYFFHSLENSEGILLTTMAIDRYVAICNPLRYQMIMTPRLCAQLSAGSCLFGFLILLPEIVMISTLPFCGPNQIHQIFCDLVPVLSLACTDTSMILIEDVIHAVTIIITFLIIALSYVRIVTVILRIPSSEGRQKAFSTCAGHLMVFPIFFGSVSLMYLRFSDTYPPVLDTAIALMFTVLAPFFNPIIYSLRNKDMNNAIKKLFCLQKVLNKPGG [OR6K3]		plasma membrane surface immunostaining intensity (GPCR class: A (Olfactory)): 197 ± 66
MDNASFSEPWPANASGPDPALSCSNASTLAPLPAPLAVAVPVVYAVICAVGLAGNSAVLYVLLRAPRMKTVTNLFILNLAIADELFTLVLPINIADFLLRQWPFGELMCKLIVAIDQYNTFSSLYFLTVMSADRYLVVLATAESRRVAGRTYSAARAVSLAVWGIVTLVVLPFAVFARLDDEQGRRQCVLVFPQPEAFWWRASRLYTLVLGFAIPVSTICVLYTTLLCRLHAMRLDSHAKALERAKKRVTFLVVAILAVCLLCWTPYHLSTVVALTTDLPQTPLVIAISYFITSLSYANSCLNPFLYAFLDASFRRNLRQLITCRAAA [NPBWR1]	3950 ± 330	
METQNLTVVTEFILLGLTQSQDAQLLVFVLVLIFYLIILPGNFLIIFTIKSDPGLTAPLYFFLGNLALLDASYSFIVVPRMLVDFLSEKKVISYRSCITQLFFLHFLGAGEMFLLVVMAFDRYIAICRPLHYSTIMNPRACYALSLVLWLGGFIHSIVQVALILHLPFCGPNQLDNFFCDVPQVIKLACTNTFVVELLMVSNSGLLSLLCFLGLLASYAVILCRIREHSSEGKSKAISTCTTHIIIIFLMFGPAIFIYTCPFQAFPADKVVSLFHTVIFPLMNPVIYTLRNQEVKASMRKLLSQHMFC [OR4N5]		plasma membrane surface immunostaining intensity (GPCR class: A (Olfactory)): 216 ± 66
MEGNQTWITDITLLGFQVGPALAILLCGLFSVFYTLTLLGNGVIFGIICLDSKLHTPMYFFLSHLAIIDMSYASNNVPKMLANLMNQKRTISFVPCIMQTFLYLAFAVTECLILVVMSYDRYVAICHPFQYTVIMSWRVCTILVLTSWSCGFALSLVHEILLLRLPFCGPRDVNHLFCEILSVLKLACADTWVNQVVIFATCVFVLVGPLSLILVSYMHILGAILKIQTKEGRIKAFSTCSSHLCVVGLFFGIAMVVYMVPDSNQREEQEKMLSLFHSVFNPMLNPLIYSLRNAQLKGALHRALQRKRSMRTVYGLCL [OR2A2]		plasma membrane surface immunostaining intensity (GPCR class: A (Olfactory)): 129 ± 17
MAVAPLRGALLLWQLLAAGGAALEIGRFDPERGRGAAPCQAVEIPMCRGIGYNLTRMPNLLGHTSQGEAAAELAEFAPLVQYGCHSHLRFFLCSLYAPMCTDQVSTPIPACRPMCEQARLRCAPIMEQFNFGWPDSLDCARLPTRNDPHALCMEAPENATAGPAEPHKGLGMLPVAPRPARPPGDLGPGAGGSGTCENPEKFQYVEKSRSCAPRCGPGVEVFWSRRDKDFALVWMAVWSALCFFSTAFTVLTFLLEPHRFQYPERPIIFLSMCYNVYSLAFLIRAVAGAQSVACDQEAGALYVIQEGLENTGCTLVFLLLYYFGMASSLWWVVLTLTWFLAAGKKWGHEAIEAHGSYFHMAAWGLPALKTIVILTLRKVAGDELTGLCYVASTDAAALTGFVLVPLSGYLVLGSSFLLTGFVALFHIRKIMKTGGTNTEKLEKLMVKIGVFSILYTVPATCVIVCYVYERLNMDFWRLRATEQPCAAAAGPGGRRDCSLPGGSVPTVAVFMLKIFMSLVVGITSGVWVWSSKTFQTWQSLCYRKIAAGRARAKACRAPGSYGRGTHCHYKAPTVVLHMTKTDPSLENPTHL [FZD9]		plasma membrane surface immunostaining intensity (GPCR class: F): 1560 ± 410
MPIMGSSVYITVELAIAVLAILGNVLVCWAVWLNSNLQNVTNYFVVSLAAADIAVGVLAIPFAITISTGFCAACHGCLFIACFVLVLTQSSIFSLLAIAIDRYIAIRIPLRYNGLVTGTRAKGIIAICWVLSFAIGLTPMLGWNNCGQPKEGKNHSQGCGEGQVACLFEDVVPMNYMVYFNFFACVLVPLLLMLGVYLRIFLAARRQLKQMESQPLPGERARSTLQKEVHAAKSLAIIVGLFALCWLPLHIINCFTFFCPDCSHAPLWLMYLAIVLSHTNSVVNPFIYAYRIREFRQTFRKIIRSHVLRQQEPFKAAGTSARVLAAHGSDGEQVSLRLNGHPPGVWANGSAPHPERRPNGYALGLVSGGSAQESQGNTGLPDVELLSHELKGVCPEPPGLDDPLAQDGAGVS [ADORA2A]	5780 ± 120	
MATLPAAETWIDGGGGVGADAVNLTASLAAGAATGAVETGWLQLLDQAGNLSSSPSALGLPVASPAPSQPWANLTNQFVQPSWRIALWSLAYGVVVAVAVLGNLIVIWIILAHKRMRTVTNYFLVNLAFSDASMAAFNTLVNFIYALHSEWYFGANYCRFQNFFPITAVFASIYSMTAIAVDRYMAIIDPLKPRLSATATKIVIGSIWILAFLLAFPQCLYSKTKVMPGRTLCFVQWPEGPKQHFTYHIIVIILVYCFPLLIMGITYTIVGITLWGGEIPGDTCDKYHEQLKAKRKVVKMMIIVVMTFAICWLPYHIYFILTAIYQQLNRWKYIQQVYLASFWLAMSSTMYNPIIYCCLNKRFRAGFKRAFRWCPFIKVSSYDELELKTTRFHPNRQSSMYTVTRMESMTVVFDPNDADTTRSSRKKRATPRDPSFNGCSRRNSKSASATSSFISSPYTSVDEYS [TACR3]	4780 ± 620	
MAATASPQPLATEDADSENSSFYYYDYLDEVAFMLCRKDAVVSFGKVFLPVFYSLIFVLGLSGNLLLLMVLLRYVPRRRMVEIYLLNLAISNLLFLVTLPFWGISVAWHWVFGSFLCKMVSTLYTINFYSGIFFISCMSLDKYLEIVHAQPYHRLRTRAKSLLLATIVWAVSLAVSIPDMVFVQTHENPKGVWNCHADFGGHGTIWKLFLRFQQNLLGFLLPLLAMIFFYSRIGCVLVRLRPAGQGRALKIAAALVVAFFVLWFPYNLTLFLHTLLDLQVFGNCEVSQHLDYALQVTESIAFLHCCFSPILYAFSSHRFRQYLKAFLAAVLGWHLAPGTAQASLSSCSESSILTAQEEMTGMNDLGERQSENYPNKEDVGNKSA [ACKR2]	6400 ± 110	
MGHNGSWISPNASEPHNASGAEAAGVNRSALGEFGEAQLYRQFTTTVQVVIFIGSLLGNFMVLWSTCRTTVFKSVTNRFIKNLACSGICASLVCVPFDIILSTSPHCCWWIYTMLFCKVVKFLHKVFCSVTILSFPAIALDRYYSVLYPLERKISDAKSRELVMYIWAHAVVASVPVFAVTNVADIYATSTCTEVWSNSLGHLVYVLVYNITTVIVPVVVVFLFLILIRRALSASQKKKVIIAALRTPQNTISIPYASQREAELHATLLSMVMVFILCSVPYATLVVYQTVLNVPDTSVFLLLTAVWLPKVSLLANPVLFLTVNKSVRKCLIGTLVQLHHRYSRRNVVSTGSGMAEASLEPSIRSGSQLLEMFHIGQQQIFKPTEDEEESEAKYIGSADFQAKEIFSTCLEGEQGPQFAPSAPPLSTVDSVSQVAPAAPVEPETFPDKYSLQFGFGPFELPPQWLSETRNSKKRLLPPLGNTPEELIQTKVPKVGRVERKMSRNNKVSIFPKVDS [GPR176]	6400 ± 100	
MLRLFYFSAIIASVILNFVGIIMNLFITVVNCKTWVKSHRISSSDRILFSLGITRFLMLGLFLVNTIYFVSSNTERSVYLSAFFVLCFMFLDSSSVWFVTLLNILYCVKITNFQHSVFLLLKRNISPKIPRLLLACVLISAFTTCLYITLSQASPFPELVTTRNNTSFNISEGILSLVVSLVLSSSLQFIINVTSASLLIHSLRRHIQKMQKNATGFWNPQTEAHVGAMKLMVYFLILYIPYSVATLVQYLPFYAGMDMGTKSICLIFATLYSPGHSVLIIITHPKLKTTAKKILCFKK [TAS2R4]		plasma membrane surface immunostaining intensity (GPCR class: Taste): 139 ± 19
MITLNNQDQPVPFNSSHPDEYKIAALVFYSCIFIIGLFVNITALWVFSCTTKKRTTVTIYMMNVALVDLIFIMTLPFRMFYYAKDEWPFGEYFCQILGALTVFYPSIALWLLAFISADRYMAIVQPKYAKELKNTCKAVLACVGVWIMTLTTTTPLLLLYKDPDKDSTPATCLKISDIIYLKAVNVLNLTRLTFFFLIPLFIMIGCYLVIIHNLLHGRTSKLKPKVKEKSIRIIITLLVQVLVCFMPFHICFAFLMLGTGENSYNPWGAFTTFLMNLSTCLDVILYYIVSKQFQARVISVMLYRNYLRSMRRKSFRSGSLRSLSNINSEML [GPR18]	360 ± 120	
MEEGGDFDNYYGADNQSECEYTDWKSSGALIPAIYMLVFLLGTTGNGLVLWTVFRSSREKRRSADIFIASLAVADLTFVVTLPLWATYTYRDYDWPFGTFFCKLSSYLIFVNMYASVFCLTGLSFDRYLAIVRPVANARLRLRVSGAVATAVLWVLAALLAMPVMVLRTTGDLENTTKVQCYMDYSMVATVSSEWAWEVGLGVSSTTVGFVVPFTIMLTCYFFIAQTIAGHFRKERIEGLRKRRRLLSIIVVLVVTFALCWMPYHLVKTLYMLGSLLHWPCDFDLFLMNIFPYCTCISYVNSCLNPFLYAFFDPRFRQACTSMLCCGQSRCAGTSHSSSGEKSASYSSGHSQGPGPNMGKGGEQMHEKSIPYSQETLVVD [APLNR]	6400 ± 84	
MAGVVHVSLAALLLLPMAPAMHSDCIFKKEQAMCLEKIQRANELMGFNDSSPGCPGMWDNITCWKPAHVGEMVLVSCPELFRIFNPDQVWETETIGESDFGDSNSLDLSDMGVVSRNCTEDGWSEPFPHYFDACGFDEYESETGDQDYYYLSVKALYTVGYSTSLVTLTTAMVILCRFRKLHCTRNFIHMNLFVSFMLRAISVFIKDWILYAEQDSNHCFISTVECKAVMVFFHYCVVSNYFWLFIEGLYLFTLLVETFFPERRYFYWYTIIGWGTPTVCVTVWATLRLYFDDTGCWDMNDSTALWWVIKGPVVGSIMVNFVLFIGIIVILVQKLQSPDMGGNESSIYLRLARSTLLLIPLFGIHYTVFAFSPENVSKRERLVFELGLGSFQGFVVAVLYCFLNGEVQAEIKRKWRSWKVNRYFAVDFKHRHPSLASSGVNGGTQLSILSKSSSQIRMSGLPADNLAT [ADCYAP1R1]		plasma membrane surface immunostaining intensity (GPCR class: B): 6416 ± 29

From the supplement of paper PMC12458215
